Source: US8648039B2, “Use of alpha-lactalbumin for regulations of glycemia” (Compagnie Laitiere Europeene, priority 2006, dated 2014)

Tests used:
[1] = tested on: male rats of the Wistar Hannover strain; experiment: Postprandial glycemia with glutathione synthesis inhibited by buthionine sulfoximine; assay type: in vivo; conditions: buthionine sulfoximine injected one hour before the meal; acute
Method: In order to confirm the role of glutathione in the regulation of glycemia and the advantage of α-lactalbumin as a cysteine source from the viewpoint of synthesis of this compound, we used a glutathione-depleted rat model, by inhibiting the synthesis of this compound with buthionine sulfoximine treatment. In these animals, glucose tolerance and insulin sensitivity were measured, and also various parameters related to the oxidative stress state. The replenishing of glutathione stores and the change in the regulation of glycemia were measured in response to diets with various levels of enrichment in α-lactalbumin and cysteine supplementation.
The methodology of example 2, limited to the acute part of the study, was repeated. Four groups of 10 male rats of the Wistar Hannover strain were operated on, after their reception, in order to put in place a venous catheter. This catheter is introduced via the left jugular, descended to the level of the vena cava, and its proximal part interconnects at the cranial level, where it is secured in place so as to allow blood samples to be taken, in the desired amount, from a conscious animal.
One week later, the rats were divided up into 4 groups subjected to the sucrose-rich normal protein meals C0, C1, C2 and alphalac. An injection of buthionine sulfoximine, a […], was given beforehand (one hour before the meal). […]

[2] = tested on: IRS1 (insulin receptor substrate 1) protein; experiment: Activation of the insulin signaling pathway (IRS1 immunoprecipitation, Western blotting) at 6 weeks; assay type: in vivo, male rats of the Wistar Hannover strain; conditions: muscle; 6 weeks of diet
Method: Four groups of 8 male rats of the Wistar Hannover strain were subjected for 6 weeks to the same sucrose-containing diets as those used in experiments 2 and 3 (P14 containing sucrose, C1, C2 and alphalac). An additional group of 8 rats, this being a non-sucrose control group, fed with a diet P14 containing 14 energy % of total milk proteins without sucrose, was added. This group constitutes the “normal” or “healthy” positive control in the evaluation of the insulin signaling pathway modifications related to the high-sucrose diet.
At 6 weeks, the anesthetized rats receive a dose of 0.750 mU.kg^−1 of insulin, directly injected into the vena cava. This injection makes it possible to light up the insulin signaling pathway and to evaluate the differences in activation between the various groups. 5 min after the injection, the muscle and the liver are removed, ground in a lysis buffer and directly immunoprecipitated with an antibody which recognizes the IRS1 (insulin receptor substrate 1) protein. The immunoprecipitated samples are then loaded onto a gel and then blotted onto a membrane (Western blotting technique). The membranes are successively hybridized with an antiphosphotyrosine antibody (tyrosine phosphorylation of the IRS protein is the first step in the insulin signaling pathway) and then an anti-total IRS1 antibody (FIG. 10).

B1: α-lactalbumin (protein, UniProt P00711 20-142, looked up)
Alpha-lactalbumin: EQLTKCEVFRELKDLKGYGGVSLPEWVCTTFHTSGYDTQAIVQNNDSTEYGLFQINNKIWCKDDQNPHSSNICNISCDKFLDDDLTDDIMCVKKILDKVGINYWLAHKALCSEKLDQWLCEKL
notes: milk serum protein; bovine form 14.2 kD, 123 amino acids
[1]
  influence of inhibition of glutathione synthesis on the effect on postprandial glycemia: does not modify
[2]
  expression of the IRS protein: attenuated
